In patent publication US20240279357A1 (THERINI BIO, published 2024):

T1: P2 peptide comprising SEQ ID NO: 31 (human fibrin γ377-395) (human)
T1 construct: Bought (CPC Scientific 920712); also called human P2 peptide
T1 peptide: YSMKKTTMKIIPFNRLTIG


Molecular target: T1, P2 peptide comprising SEQ ID NO: 31 …
Assay: SPR (Biacore) single cycle, steady state fit; IgG from HEK supernatant captured, P2 peptide analyte
Procedure: FIG. 18 illustrates the procedure used for the single cycle kinetics analysis. The Biacore T200 […] instrument was used for single cycle kinetics analysis with the control software v2.0.1, and evaluation software V3.0. The anti-human capture chip was used with a running buffer consisting of HBS-P+ buffer (pH 7.4) containing 0.1% BSA at 25° C. a flow rate of 30 μl/min. Neat HEK supernatants were used as ligand and loaded to ˜1674 RU at 10 μl/min. P2 peptide comprising SEQ ID NO: 31 (CPC Scientific 920712, Lot #CS-02-00350) was the analyte for the analysis. […] Regeneration was performed with MgCl₂. Antibodies were diluted in running buffer to a final concentration of 20 μg/ml, based on concentrations assessed by Octet titre. At the start of each cycle, antibodies were loaded onto Fc2, Fc3 and Fc4 of the anti-human capture chip (GE Healthcare, Little Chalfont, UK). IgGs were captured at a flow rate of 10 μl/min to give an immobilization level (RL) of ˜ 1674 RU, the theoretical value to obtain an RMax of ˜50 RU. The surface was then allowed to stabilize. Single cycle kinetic data was obtained with P2 peptide as the analyte at a flow rate of 30 μl/min to minimize any potential mass transport limitations. […] The signal from the reference channel Fc1 (no antibody) was subtracted from that of Fc2, Fc3 and Fc4 to correct for differences in non-specific binding to a reference surface. […] The association phase for the five injections of increasing concentrations of P2 peptide was monitored for 20 seconds each time and a single dissociation phase was measured for 25 seconds following the last injection analyte. Regeneration of the anti-human capture surface was conducted using one injection of 3.8 M magnesium chloride.

| Binder | Kd | Relative KD |
| --- | --- | --- |
| VH4/VK3 (antibody, V domains shown) VH: QVQLVQSGAEVKKPGSSVKVSCKASGYTFTSYWIHWVRQAPGQGLEWIGLIDPSDSYTNYNQKFRGRVTITVDTSTSTAYMELSSLRSEDTAVYYCASSDPTGCWGQGTTVTVSS VL: DIVMTQSPLSLPVTPGEPASISCRSSKSLLHSSGITYLSWYLQKPGQSPQLLIYQMSNLASGVPDRFSSSGSGTDFTLKISRVEAEDVGVYYCAQNLELPLTFGQGTKLEIK | 148 µM | 1.67 fold against VH0/VK0 |
| VH1/VK1 (antibody, V domains shown) VH: QVQLVQSGAELKKPGTSVKLSCKASGYTFTSYWIHWVKQAPGQGLEWIGLIDPSDSYTNYNQKFRGRATLTVDTSTSTAYMQLSSLTSEDSAVYYCASSDPTGCWGQGTTVTVSS VL: DIVMTQAAFSNPITPGTPASISCRSSKSLLHSSGITYLSWYLQKPGQSPQLLIYQMSNLASGVPDRFSSSGSGTDFTLRISRVEAEDVGVYYCAQNLELPLTFGQGTKLEIK | 104 µM |  |
| VH1/VK3 (antibody, V domains shown) VH: QVQLVQSGAELKKPGTSVKLSCKASGYTFTSYWIHWVKQAPGQGLEWIGLIDPSDSYTNYNQKFRGRATLTVDTSTSTAYMQLSSLTSEDSAVYYCASSDPTGCWGQGTTVTVSS VL: DIVMTQSPLSLPVTPGEPASISCRSSKSLLHSSGITYLSWYLQKPGQSPQLLIYQMSNLASGVPDRFSSSGSGTDFTLKISRVEAEDVGVYYCAQNLELPLTFGQGTKLEIK | 200 µM | 2.25 fold against VH0/VK0 |
| VH5/VK1 (antibody, IgG1, V domains shown, Expressed as IgG1) VH: QVQLVQSGAEVKKPGSSVKVSCKASGYTFTSYWIHWVRQAPGQGLEWIGLIDPSDSYTNYNQKFRGRVTITRDTSTSTAYMELSSLRSEDTAVYYCASSDPTGCWGQGTTVTVSS VL: DIVMTQAAFSNPITPGTPASISCRSSKSLLHSSGITYLSWYLQKPGQSPQLLIYQMSNLASGVPDRFSSSGSGTDFTLRISRVEAEDVGVYYCAQNLELPLTFGQGTKLEIK | 173 µM | 1.95 fold against VH0/VK0 |
| VH5/VK3 (antibody, IgG1, V domains shown, Expressed as IgG1) VH: QVQLVQSGAEVKKPGSSVKVSCKASGYTFTSYWIHWVRQAPGQGLEWIGLIDPSDSYTNYNQKFRGRVTITRDTSTSTAYMELSSLRSEDTAVYYCASSDPTGCWGQGTTVTVSS VL: DIVMTQSPLSLPVTPGEPASISCRSSKSLLHSSGITYLSWYLQKPGQSPQLLIYQMSNLASGVPDRFSSSGSGTDFTLKISRVEAEDVGVYYCAQNLELPLTFGQGTKLEIK | 279 µM | 3.15 fold against VH0/VK0 |
| VH6/VK1 (antibody, IgG1, V domains shown, Expressed as IgG1) VH: QVQLVQSGAEVKKPGSSVKVSCKASGYTFTSYWIHWVRQAPGQGLEWIGLIDPSDSYTNYNQKFQGRVTITRDTSTSTAYMELSSLRSEDTAVYYCASSDPTGCWGQGTTVTVSS VL: DIVMTQAAFSNPITPGTPASISCRSSKSLLHSSGITYLSWYLQKPGQSPQLLIYQMSNLASGVPDRFSSSGSGTDFTLRISRVEAEDVGVYYCAQNLELPLTFGQGTKLEIK | 174 µM | 1.96 fold against VH0/VK0 |

Further lines, results first:

| Kd | Relative KD | Binder |
| --- | --- | --- |
| 176 µM | 1.98 fold against VH0/VK0 | VH1/VK4 (antibody, V domains shown) VH: QVQLVQSGAELKKPGTSVKLSCKASGYTFTSYWIHWVKQAPGQGLEWIGLIDPSDSYTNYNQKFRGRATLTVDTSTSTAYMQLSSLTSEDSAVYYCASSDPTGCWGQGTTVTVSS VL: DIVMTQSPLSLPVTPGEPASISCRSSKSLLHSSGITYLSWYLQKPGQSPQLLIYQMSNLASGVPDRFSGSGSGTDFTLKISRVEAEDVGVYYCAQNLELPLTFGQGTKLEIK |
| 96.4 µM | 1.09 fold against VH0/VK0 | VH1/VK2 (antibody, V domains shown) VH: QVQLVQSGAELKKPGTSVKLSCKASGYTFTSYWIHWVKQAPGQGLEWIGLIDPSDSYTNYNQKFRGRATLTVDTSTSTAYMQLSSLTSEDSAVYYCASSDPTGCWGQGTTVTVSS VL: DIVMTQAAFSNPVTPGTPASISCRSSKSLLHSSGITYLSWYLQKPGQSPQLLIYQMSNLASGVPDRFSSSGSGTDFTLKISRVEAEDVGVYYCAQNLELPLTFGQGTKLEIK |
| 157 µM | 1.77 fold against VH0/VK0 | VH4/VK4 (antibody, IgG1, V domains shown, Expressed as IgG1) VH: QVQLVQSGAEVKKPGSSVKVSCKASGYTFTSYWIHWVRQAPGQGLEWIGLIDPSDSYTNYNQKFRGRVTITVDTSTSTAYMELSSLRSEDTAVYYCASSDPTGCWGQGTTVTVSS VL: DIVMTQSPLSLPVTPGEPASISCRSSKSLLHSSGITYLSWYLQKPGQSPQLLIYQMSNLASGVPDRFSGSGSGTDFTLKISRVEAEDVGVYYCAQNLELPLTFGQGTKLEIK |
| 192 µM | 2.16 fold against VH0/VK0 | VH6/VK3 (antibody, IgG1, V domains shown, Expressed as IgG1) VH: QVQLVQSGAEVKKPGSSVKVSCKASGYTFTSYWIHWVRQAPGQGLEWIGLIDPSDSYTNYNQKFQGRVTITRDTSTSTAYMELSSLRSEDTAVYYCASSDPTGCWGQGTTVTVSS VL: DIVMTQSPLSLPVTPGEPASISCRSSKSLLHSSGITYLSWYLQKPGQSPQLLIYQMSNLASGVPDRFSSSGSGTDFTLKISRVEAEDVGVYYCAQNLELPLTFGQGTKLEIK |
| 277 µM | 3.12 fold against VH0/VK0 | VH5/VK4 (antibody, IgG1, V domains shown, Expressed as IgG1) VH: QVQLVQSGAEVKKPGSSVKVSCKASGYTFTSYWIHWVRQAPGQGLEWIGLIDPSDSYTNYNQKFRGRVTITRDTSTSTAYMELSSLRSEDTAVYYCASSDPTGCWGQGTTVTVSS VL: DIVMTQSPLSLPVTPGEPASISCRSSKSLLHSSGITYLSWYLQKPGQSPQLLIYQMSNLASGVPDRFSGSGSGTDFTLKISRVEAEDVGVYYCAQNLELPLTFGQGTKLEIK |

Molecular target: T1, P2 peptide comprising SEQ ID NO: 31 …
Assay: SPR (Biacore) single cycle, steady state affinity; IgG from HEK supernatant captured, γ377-395 peptide analyte

| Binder | Kd | Relative KD |
| --- | --- | --- |
| VH5 C102A/VK2 (antibody, IgG1, V domains shown, IgG1, tested from HEK supernatant) VH: QVQLVQSGAEVKKPGSSVKVSCKASGYTFTSYWIHWVRQAPGQGLEWIGLIDPSDSYTNYNQKFRGRVTITRDTSTSTAYMELSSLRSEDTAVYYCASSDPTGAWGQGTTVTVSS VL: DIVMTQAAFSNPVTPGTPASISCRSSKSLLHSSGITYLSWYLQKPGQSPQLLIYQMSNLASGVPDRFSSSGSGTDFTLKISRVEAEDVGVYYCAQNLELPLTFGQGTKLEIK | 110 µM | 1.44 fold against VH5/VK2 |
| VH4 C102L/VK2 (antibody, IgG1, V domains shown, IgG1, tested from HEK supernatant; also called VH4-102L) VH: QVQLVQSGAEVKKPGSSVKVSCKASGYTFTSYWIHWVRQAPGQGLEWIGLIDPSDSYTNYNQKFRGRVTITVDTSTSTAYMELSSLRSEDTAVYYCASSDPTGLWGQGTTVTVSS VL: DIVMTQAAFSNPVTPGTPASISCRSSKSLLHSSGITYLSWYLQKPGQSPQLLIYQMSNLASGVPDRFSSSGSGTDFTLKISRVEAEDVGVYYCAQNLELPLTFGQGTKLEIK | 93 µM | 1.98 fold against VH4/VK2 |

Now from value to binder:

| Kd | Relative KD | Binder |
| --- | --- | --- |
| 72 µM | 1.53 fold against VH4/VK2 | VH4 C102A/VK2 (antibody, IgG1, V domains shown, IgG1, tested from HEK supernatant) VH: QVQLVQSGAEVKKPGSSVKVSCKASGYTFTSYWIHWVRQAPGQGLEWIGLIDPSDSYTNYNQKFRGRVTITVDTSTSTAYMELSSLRSEDTAVYYCASSDPTGAWGQGTTVTVSS VL: DIVMTQAAFSNPVTPGTPASISCRSSKSLLHSSGITYLSWYLQKPGQSPQLLIYQMSNLASGVPDRFSSSGSGTDFTLKISRVEAEDVGVYYCAQNLELPLTFGQGTKLEIK |
| 66 µM | 1.41 fold against VH4/VK2 | VH4 C102S/VK2 (antibody, IgG1, V domains shown, IgG1, tested from HEK supernatant) VH: QVQLVQSGAEVKKPGSSVKVSCKASGYTFTSYWIHWVRQAPGQGLEWIGLIDPSDSYTNYNQKFRGRVTITVDTSTSTAYMELSSLRSEDTAVYYCASSDPTGSWGQGTTVTVSS VL: DIVMTQAAFSNPVTPGTPASISCRSSKSLLHSSGITYLSWYLQKPGQSPQLLIYQMSNLASGVPDRFSSSGSGTDFTLKISRVEAEDVGVYYCAQNLELPLTFGQGTKLEIK |
| 22 µM | 0.59 fold against VH4/VK2 | VH4 C102G/VK2 (antibody, IgG1, V domains shown, IgG1, tested from HEK supernatant; also called VH4-102G) VH: QVQLVQSGAEVKKPGSSVKVSCKASGYTFTSYWIHWVRQAPGQGLEWIGLIDPSDSYTNYNQKFRGRVTITVDTSTSTAYMELSSLRSEDTAVYYCASSDPTGGWGQGTTVTVSS VL: DIVMTQAAFSNPVTPGTPASISCRSSKSLLHSSGITYLSWYLQKPGQSPQLLIYQMSNLASGVPDRFSSSGSGTDFTLKISRVEAEDVGVYYCAQNLELPLTFGQGTKLEIK |
| 49 µM | 1.05 fold against VH4/VK2 | VH4 C102T/VK2 (antibody, IgG1, V domains shown, IgG1, tested from HEK supernatant) VH: QVQLVQSGAEVKKPGSSVKVSCKASGYTFTSYWIHWVRQAPGQGLEWIGLIDPSDSYTNYNQKFRGRVTITVDTSTSTAYMELSSLRSEDTAVYYCASSDPTGTWGQGTTVTVSS VL: DIVMTQAAFSNPVTPGTPASISCRSSKSLLHSSGITYLSWYLQKPGQSPQLLIYQMSNLASGVPDRFSSSGSGTDFTLKISRVEAEDVGVYYCAQNLELPLTFGQGTKLEIK |
| 33 µM | 0.7 fold against VH4/VK2 | VH4 C102V/VK2 (antibody, IgG1, V domains shown, IgG1, tested from HEK supernatant; also called VH4-102V) VH: QVQLVQSGAEVKKPGSSVKVSCKASGYTFTSYWIHWVRQAPGQGLEWIGLIDPSDSYTNYNQKFRGRVTITVDTSTSTAYMELSSLRSEDTAVYYCASSDPTGVWGQGTTVTVSS VL: DIVMTQAAFSNPVTPGTPASISCRSSKSLLHSSGITYLSWYLQKPGQSPQLLIYQMSNLASGVPDRFSSSGSGTDFTLKISRVEAEDVGVYYCAQNLELPLTFGQGTKLEIK |
